Measured values from patent US20210221891A1.

Biological target: human PD-L1 expressed on CHO-K1 cells (human) (UniProt Q9NZQ7)
Experiment: FACS binding to CHO-K1 cells stably expressing human PD-L1, FITC anti-human IgG secondary, Geo.Mean fluorescence vs log(nM) antibody

human PD-L1 expressed on CHO-K1 cells (human), sequence (Q9NZQ7 19-290): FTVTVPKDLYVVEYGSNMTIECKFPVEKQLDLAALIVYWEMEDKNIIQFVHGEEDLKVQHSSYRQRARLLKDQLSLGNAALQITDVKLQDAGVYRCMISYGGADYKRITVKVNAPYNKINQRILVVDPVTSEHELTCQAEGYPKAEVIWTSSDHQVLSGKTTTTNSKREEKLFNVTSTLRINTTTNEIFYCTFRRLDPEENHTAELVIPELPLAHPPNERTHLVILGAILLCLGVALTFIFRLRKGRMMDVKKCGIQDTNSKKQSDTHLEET

EC50 (read off the curve): 20 nM
Substance: Tecentriq® (antibody)
